Assay results as given in patent US20030027981A1, “Urokinase-type plasminogen activator receptor” (priority 1989, published 2003).
Read-outs that look alike come from different tables or passages of the source. Values belong to the molecule of their own block, whether it stands above or below them.

How the values were obtained:
thrombospondin = thrombospondin (Homo sapiens, UniProt P07996); settings: purified thrombospondin; cited from earlier work
u-PAR = u-PAR (Homo sapiens, UniProt Q03405); test: Chemical cross-linking of 125I-ATF to purified u-PAR; format: binding; settings: unlabelled reagent 100 nM, u-PAR approx. 1 nM, 125I-ATF approx. 1 nM
Method: B) Affinity column eluate was diluted to yield an approximate concentration of u-PAR of 1 nM during the assay. The samples were preincubated alone (lane 2) or in the presence of the following unlabelled reagents at a concentration of 100 nM: bovine serum albumin (lane 3), t-PA (lane 4), plasminogen (lane 5), murine epidermal growth factor (lane 6), ATF (lane 7), active 54 kD u-PA (lane 8), DFP-inactivated 54 kD u-PA (lane 9). After preincubation for 15 min at room temperature, ^125I-labelled ATF (approximately 1 nM) was added, followed by incubation for 1 hour at 4° C. After incubation, chemical cross-linking was performed with DSS, after which the samples were analyzed by SDS-PACE on a 6-16% gradient gel under non-reducing conditions and autoradiography. […] Electrophoretic mobilities of molecular weight standard proteins are inducated (kD).
Cross-linking of u-PAR in complex mixtures or purified fractions to ^125I-labelled ATF was performed as described for solubilized receptor (Nielsen et al., 1988), except that 2 mM disuccinimidylsuberate (DSS) was used for cross-linking. Cross-linking of purified u-PAR to DFP-treated u-PA for analysis by SDS-PAGE and silver-staining was performed in the same manner, except that non-labelled DFP-treated u-PA was used as the ligand.

cultured cells = settings: plasminogen, cultured cells; cited from earlier work
u-PA = u-PA (Homo sapiens, UniProt P00749); test: Inhibition of u-PA in solution by PAI's (association rate constants); format: biochemical
Source text: Plasminogen was purified from fresh human plasma as previously described (Danø and Reich, 1979), and was further separated into its two isoforms by elution from lysine-Sepharose with a linear gradient of 6-amino-hexanoic acid. Plasminogen isoform 2 was used in all experiments described here. u-PA (Mr 55,000) was obtained either by plasmin activation of pro-uPA (Ellis et al., 1987) or as Ukidan (Serono). Both preparations were greater than 95% high molecular weight u-PA by SDS-polyacrylamide gel electrophoresis. The concentration of active u-PA in these preparations was determined by active-site titration with p-nitrophenyl-p-guanidinobenzoate (Sigma Chem. Co.). DFP-inactivated u-PA was prepared as described in Example 1. […] The concentrations of active inhibitor in the various PAI preparations were determined by titration against u-PA immediately before use in the kinetic experiments. […] Residual u-PA activity was then measured by hydrolysis of 0.2 mM Glu-Gly-Arg-AMC (Bachem, Switzerland).
The effect of PAI's on the activity of cell-bound u-PA was determined by the addition of varying concentrations of PAI-1 (0.18-18.4 nM) or PAI-2 (1.13-56.7 nM) to the incubations at the same time as the addition of plasminogen. […]
[pln]∞ was calculated from the relationship: […]
where Δ[pln]0 is the initial rate of plasmin generation which was determined in control incubations in the absence of inhibitors. […]

uPAR-bound u-PA = uPAR-bound u-PA (Homo sapiens, UniProt P00749); format: cell-based
Method: U937 cells were grown in suspension in RPMI 1640 medium supplemented with 5% heat-inactivated fetal calf serum. PMA-stimulation of U937 cells was performed at a cell density of […] cells/ml with 150 nM PMA for 4 days. The adherent cell population was harvested with a rubber scraper and resuspended in PBS. […] The effect of PAI's on the activity of cell-bound u-PA was determined by the addition of varying concentrations of PAI-1 (0.18-18.4 nM) or PAI-2 (1.13-56.7 nM) to the incubations at the same time as the addition of plasminogen. Curves were then constructed of plasmin concentration against time. […] [pln]∞ was calculated from the relationship: [[…]]0) equation.2 where Δ[pln]0 is the initial rate of plasmin generation which was determined in control incubations in the absence of inhibitors. […] Association rate constants (second-order rate constants) were calculated from the slope of the line of double reciprocal plots of kapp against inhibitor concentration.

thrombospondin, sequence (P07996 19-1170): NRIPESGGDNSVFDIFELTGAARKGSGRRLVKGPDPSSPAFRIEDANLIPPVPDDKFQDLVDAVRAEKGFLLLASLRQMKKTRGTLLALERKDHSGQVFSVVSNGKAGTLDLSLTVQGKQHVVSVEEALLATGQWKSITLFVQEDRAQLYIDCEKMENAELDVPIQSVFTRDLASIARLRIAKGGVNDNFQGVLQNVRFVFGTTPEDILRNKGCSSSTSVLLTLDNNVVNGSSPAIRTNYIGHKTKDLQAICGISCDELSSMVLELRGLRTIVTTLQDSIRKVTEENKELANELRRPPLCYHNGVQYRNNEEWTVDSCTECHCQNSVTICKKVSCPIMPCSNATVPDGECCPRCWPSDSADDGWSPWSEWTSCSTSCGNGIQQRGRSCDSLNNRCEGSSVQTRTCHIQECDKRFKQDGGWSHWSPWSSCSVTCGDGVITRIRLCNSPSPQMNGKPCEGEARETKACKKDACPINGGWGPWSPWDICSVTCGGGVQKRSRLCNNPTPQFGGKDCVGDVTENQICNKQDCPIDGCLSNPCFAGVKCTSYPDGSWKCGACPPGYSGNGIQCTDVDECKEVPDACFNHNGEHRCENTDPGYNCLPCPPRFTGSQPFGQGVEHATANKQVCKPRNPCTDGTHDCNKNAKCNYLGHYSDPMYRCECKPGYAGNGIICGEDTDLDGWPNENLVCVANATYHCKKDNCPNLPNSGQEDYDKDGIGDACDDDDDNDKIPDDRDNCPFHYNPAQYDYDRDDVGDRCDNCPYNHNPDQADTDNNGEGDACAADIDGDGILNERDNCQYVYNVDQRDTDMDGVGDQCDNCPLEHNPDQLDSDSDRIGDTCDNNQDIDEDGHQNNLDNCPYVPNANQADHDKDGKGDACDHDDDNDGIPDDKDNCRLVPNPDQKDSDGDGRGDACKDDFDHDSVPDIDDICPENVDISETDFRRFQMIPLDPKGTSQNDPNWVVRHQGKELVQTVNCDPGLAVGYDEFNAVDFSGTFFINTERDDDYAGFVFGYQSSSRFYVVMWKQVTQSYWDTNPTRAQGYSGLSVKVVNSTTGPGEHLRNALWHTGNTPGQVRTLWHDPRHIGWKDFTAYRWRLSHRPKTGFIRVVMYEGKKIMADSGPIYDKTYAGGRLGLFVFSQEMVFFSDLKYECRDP

Competition for binding and cross-linking of 125I-labelled ATF to purified u-PAR (u-PAR): no competition
Molecule: Plg: native human plasminogen (glutamic acid N-terminal) purified from human plasma on lysine-Sepharose
Kd (thrombospondin): 35 nM | Kd (cultured cells): 1000 nM

Association rate constant (u-PA; direct assay with u-PA specific fluorogenic peptide substrate): 520000 M⁻¹ s⁻¹ | Association rate constant (u-PA; plasminogen activation assay): 530000 M⁻¹ s⁻¹ | Rate of inhibition of cell-bound u-PA relative to u-PA in solution (uPAR-bound u-PA; U937 cells): approximately 60% | Association rate constant (uPAR-bound u-PA; u-PA bound to uPAR on PMA-stimulated U937 cells): 110000 M⁻¹ s⁻¹ | Association rate constant (uPAR-bound u-PA; u-PA bound to uPAR on U937 cells): 330000 M⁻¹ s⁻¹
B1: PAI-2: human type-2 plasminogen activator inhibitor purified from U937 cells (protein, UniProt P05120 1-415, looked up)
Plasminogen activator …: MEDLCVANTLFALNLFKHLAKASPTQNLFLSPWSISSTMAMVYMGSRGSTEDQMAKVLQFNEVGANAVTPMTPENFTSCGFMQQIQKGSYPDAILQAQAADKIHSSFRSLSSAINASTGNYLLESVNKLFGEKSASFREEYIRLCQKYYSSEPQAVDFLECAEEARKKINSWVKTQTKGKIPNLLPEGSVDGDTRMVLVNAVYFKGKWKTPFEKKLNGLYPFRVNSAQRTPVQMMYLREKLNIGYIEDLKAQILELPYAGDVSMFLLLPDEIADVSTGLELLESEITYDKLNKWTSKDKMAEDEVEVYIPQFKLEEHYELRSILRSMGMEDAFNKGRANFSGMSERNDLFLSEVFHQAMVDVNEEGTEAAAGTGGVMTGRTGHGGPQFVADHPFLFLIMHKITNCILFFGRFSSP
